The text below walks through data of the supplement of paper PMC9170038.

The test system of the data set is MS2 coat protein. The data set can be described thus: apparent KD of MS2 coat protein; designed switch direction (-1 OFF switch, 1 ON switch): -1; higher = weaker reporter binding. The procedure, abridged: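 Transcription of designed RNA switches on Illumina chips was done by stalled E. coli RNA polymerase. SNAP-549-labelled MS2 coat protein was then titrated in doubling steps from 0.7 or 1.5 nM to 3 µM, with steps of 0.8–1.5 h at the lowest and 10–20 min at the highest concentration. The per-design median over clusters of curve-fitted normalised fluorescence is reported as apparent KD.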

[1] abbreviates: Eterna round: R95, input ligand: FMN 200 uM.
Where [2] appears, read: Eterna round: R95, input ligand: microRNA oligo, concentration not stated.
Setting [3] is: Eterna round: R95, input ligand: none.
Where [4] appears, read: input ligand: microRNA oligo, concentration not stated.

On to “CUGAGGUAGCGGUCCUAUGACAUGAGGAUCACCCAUGUACCUUGCUUUGAGCUUUAUGCUCGUCUUAUGAUUCUCGG [Mat - Sensor v3 - turn-off var 1 - JL Mod - D42] (puzzle: Sensor v3, turn-off variant 1)”, for which the “apparent KD of MS2 coat protein” value under setting [1] came out at 585 nM, the “apparent KD of MS2 coat protein” value under setting [2] came out at 537 nM and the “apparent KD of MS2 coat protein” value under setting [3] was determined as 546 nM.
As to “CUGAGUAUAGGAUAUACAUGAGGAUCACCCAUGUAGAAACAAGGGUCUUACAACUAAAGUAGAAGGAUAUUUGG [ExFusion 7 - Jieux - Exclusion 3] (Eterna round: R97, puzzle: Exclusion 3)”, the “apparent KD of MS2 coat protein” value reads like this: (input ligand: FMN 200 uM) 112 nM; (input ligand: none) 48.2 nM.
Take “CUGAGUCAAGGAUAUACAUGAGGAUCACCCAUGUAAAGUAGCUUGCGUACAGGCAGAUGUAGAAGGUGAUUCGG [Mod of JL 9 - Jieux - Exclusion 3] (Eterna round: R97, puzzle: Exclusion 3)”: the “apparent KD of MS2 coat protein” value by setting is: (input ligand: FMN 200 uM) 100 nM; (input ligand: none) 90.7 nM.
“CUGAUGUCAGGAUAUCAGAAAAGGUGCAAGGACGCACCAAAUGAGAAGGGACAUGAGGAUCACCCAUGUAAAAC [Maqucema] (puzzle: Exclusion 4)”: the “apparent KD of MS2 coat protein” value under setting [2] is 25.4 nM.
Take “CUGCUCCGUGUAGGAUAUCCAUGCAACCAAUAUGGAGAAGGACAUGAGGAUCACCCAUGUAUGUUAUUAUCACGUGAAGCGUCC [Design 23] (Eterna round: R96, puzzle: Exclusion NG 1)”: the “apparent KD of MS2 coat protein” value (input ligand: FMN 200 uM) is 28.6 nM, the “apparent KD of MS2 coat protein” value under setting [4] worked out at 24 nM and the “apparent KD of MS2 coat protein” value (input ligand: none) is 31.2 nM.
As to “CUGCUCCGUGUAGGAUAUCCCGGCAACCAAUCGGGAGAAGGACAUGAGGAUCACCCAUGUAUGUUAUUAUCACGUGAAGCGUCC [Design 27] (Eterna round: R96, puzzle: Exclusion NG 1)”, under setting [4], the “apparent KD of MS2 coat protein” value turned out to be 16.3 nM.
Regarding “CUGCUCCGUGUAGGAUAUCCGGGCAACCAAUCCGGAGAAGGACAUGAGGAUCACCCAUGUAUGUUAUUAUCACGUGAAGCGUCC [Design 25] (Eterna round: R96, puzzle: Exclusion NG 1)”, the “apparent KD of MS2 coat protein” value under setting [4] turned out to be 15.6 nM.
As for “CUGCUCCGUGUAGGAUAUGCAUACUCCCACUAUGCAGAAGGACAUGAGGAUCACCCAUGUAUGUUAUUAUCACGUGUAGCGUAC [Design 16] (Eterna round: R96, puzzle: Exclusion NG 1)”, the “apparent KD of MS2 coat protein” value under setting [4] came to 21.7 nM.
“CUGCUCCGUGUAGGAUAUGCAUACUCCCAUUAUGCAGAAGGACAUGAGGAUCACCCAUGUAUGUUAUUAUCACGUGUUGCGUAC [Design 14] (Eterna round: R96, puzzle: Exclusion NG 1)”: the “apparent KD of MS2 coat protein” value under setting [4] came to 20 nM.
For “CUGCUGGAGCGGUGCUUUGGUCGUACAUGAGGAUCACCCAUGUAGGAUAUGGUAAAAUUUGCUUGCUAGAAGGAUAGAGUGGUC [salish99_ExNG3_r04_614] (Eterna round: R96, puzzle: Exclusion NG 3)”, the “apparent KD of MS2 coat protein” value by setting is: (input ligand: FMN 200 uM) 96.9 nM; under setting [4], 42.4 nM; (input ligand: none) 61.3 nM.
For the sequence “CUGGUCCGAGGAUAUAUUAAGUGAAACAUGAGGAUCACCCAUGUUAUUUGAUGGAUGAAAAUAGAAGGCGGACUAG [Mat - Exclusion 5 - JL mod - D58] (puzzle: Exclusion 5)”, the “apparent KD of MS2 coat protein” value by setting is: under setting [1], 22.9 nM; under setting [2], 41.1 nM; under setting [3], 45.2 nM.
For “CUGGUCCGAGGAUAUAUUAAGUGAUACAUGAGGAUCACCCAUGUAAUUUAAUGGAUGUAAAUAGAAGGCGGACUAG [JL-ex5-3.11] (puzzle: Exclusion 5)”, the “apparent KD of MS2 coat protein” value under setting [1] amounted to 43.2 nM, the “apparent KD of MS2 coat protein” value under setting [2] was found to be 39.7 nM and the “apparent KD of MS2 coat protein” value under setting [3] stood at 38.7 nM.
As to “CUGGUCCGAGGAUAUAUUAUGUGAAACAUGAGGAUCACCCAUGUAAUAUGAUGGAUAUAAAUAGAAGGCGGACUAG [Mat - Exclusion 5 - JL mod - D31] (puzzle: Exclusion 5)”, the “apparent KD of MS2 coat protein” value is, setting by setting: under setting [1], 22.4 nM; under setting [2], 19.9 nM; under setting [3], 31.1 nM.
For the sequence “CUGGUCCGAGGAUAUAUUAUGUGAAACAUGAGGAUCACCCAUGUAAUAUGAUGGAUGUAAAUAGAAGGCGGACUAG [JL-ex5-3.07] (puzzle: Exclusion 5)”, the “apparent KD of MS2 coat protein” value is, setting by setting: under setting [1], 38.2 nM; under setting [2], 37.3 nM; under setting [3], 47.2 nM.
Take “CUGGUCCGAGGAUAUAUUUUGUGAAACAUGAGGAUCACCCAUGUAAUAAAAUGGAAAUAAAUAGAAGGCGGACUAG [Mat - Exclusion 5 - JL mod - D42] (puzzle: Exclusion 5)”: the “apparent KD of MS2 coat protein” value runs as follows: under setting [1], 25.2 nM; under setting [2], 20.8 nM; under setting [3], 24.2 nM.
Turning to “CUGGUCCGAGGAUAUAUUUUGUGAAACAUGAGGAUCACCCAUGUAAUAAAAUGGAUGUAAAUAGAAGGCGGACUAG [Mat - Exclusion 5 - JL mod - D40] (puzzle: Exclusion 5)”, the “apparent KD of MS2 coat protein” value stood at 26.7 nM under setting [1], 29 nM under setting [2] and 30 nM under setting [3].
Regarding “CUGGUGUGAGGAUAUCAAAGACCUCGGUAAAGAACCGAGGAUGAGAAGGCACAUGAGGAUCACCCAUGUAACAA [Lauscege] (puzzle: Exclusion 4)”, the “apparent KD of MS2 coat protein” value under setting [2] was determined as 22.6 nM.
In the case of “CUGGUGUGAGGAUAUCAGGACACAUCCGCGGGCGUGUCAAAUGAGAAGGCACAUGAGGAUCACCCAUGUGGGAC [Onquveatge] (puzzle: Exclusion 4)”, the “apparent KD of MS2 coat protein” value was found to be 57.1 nM under setting [1], 44.2 nM under setting [2] and 53.2 nM under setting [3].
With “CUGUAGCUACAAGCUUUUUGCACGUCAGGUAGUGACGCAACAUGAGGAUCACCCAUGUAUAGGGUGGGACAGGAUAG [JR_SV3TOV2_Sub049] (puzzle: Sensor v3, turn-off variant 2)”, the “apparent KD of MS2 coat protein” value came to 443 nM under setting [1], 153 nM under setting [2] and 495 nM under setting [3].
On to “CUGUGCACGCUGCGAUCCUACAUGAGGAUCACCCAUGUGGUCUGGUGGCGUGGGUCACCGGACUUGGCUCGUCUUGA [salish99_S_TOV1_R5_070] (Eterna round: R97, puzzle: Sensor, turn-off variant 1)”, for which the “apparent KD of MS2 coat protein” value reads like this: (input ligand: FMN 200 uM) 147 nM; (input ligand: none) 156 nM.
For “CUGUGUAGACAGGAUAUGCUGUACAAAAGUACAGCAGAAGGGUCUACAUGAGGAUCACCCAUGUAUACCUCAUG [)mei Ex6 B25] (Eterna round: R97, puzzle: Exclusion 6)” the same measures were 735 nM and 88.8 nM.
“CUGUGUCCGCAGGAUAUGUCAUCCUGAAGGAUCACAGAAGGGCGGACAUGAGGAUCACCCAUGUGAGCCAAAGA [EX6 A.11] (Eterna round: R97, puzzle: Exclusion 6)”: the “apparent KD of MS2 coat protein” value came to 16.7 nM (input ligand: FMN 200 uM) and 17.9 nM (input ligand: none).
Regarding “CUGUUCCGUGUAGGAUAUGCAUAUUCUCAUUAUGCAGAAGGACAUGAGGAUCACCCAUGUAUGUUAUUAUCAUGUGUUACAUGU [Design 6] (Eterna round: R96, puzzle: Exclusion NG 1)”, under setting [4], the “apparent KD of MS2 coat protein” value turned out to be 22.4 nM.
On to “CUGUUUUCCGCAGGAUAUGCUCCUCCAUUACUAGCAGAAGGGCGUUGAACAUGAGGAUCACCCAUGUAUGUAAUUGCUUAUUGC [JR_ExcNG1_Sub072] (Eterna round: R96, puzzle: Exclusion NG 1)”, for which the “apparent KD of MS2 coat protein” value came to 19.2 nM (input ligand: FMN 200 uM), 14.6 nM under setting [4] and 19.4 nM (input ligand: none).
For the sequence “CUUAAGGCAGGAUAUGCUUUUUGUGACAUGAGGAUCACCCAUGUGAUGCAGUUUGGGUUUGCAGAAGGGCCUGAGU [JR_E5_Sub034] (puzzle: Exclusion 5)”, the “apparent KD of MS2 coat protein” value under setting [2] amounted to 82.6 nM.
As for “CUUAAGUCAGGAUAUCAGGAGCAAGCUUAACGGGCACUCGCUGAGAAGGGACAUGAGGAUCACCCAUGUGCUCG [Eternabot (L2) Solution 17] (Eterna round: R97, puzzle: Exclusion 4)”, the “apparent KD of MS2 coat protein” value (input ligand: FMN 200 uM) is 52.3 nM and the “apparent KD of MS2 coat protein” value (input ligand: none) was 24.7 nM.
For the sequence “CUUAAUUGUCAGAUGGGUGACAUGAGGAUCACCCAUGUCACAAGCUUUUUGUUCGUCUUAUAAUUAACCCAUCUGAC [Stov1/11-B3] (Eterna round: R97, puzzle: Sensor, turn-off variant 1)”, the “apparent KD of MS2 coat protein” value (input ligand: FMN 200 uM) stood at 14.5 nM and the “apparent KD of MS2 coat protein” value (input ligand: none) was 12.3 nM.
As to “CUUAGACAUGAGGAUCACCCAUGUGAGGAUAUGAAAUGAAUUAAGUAUGAAGUAUGAAUCAGAAGGCACAUAUG [Mat - Mod of Hyphema D33] (puzzle: Exclusion 1)”, the “apparent KD of MS2 coat protein” value stood at 63 nM under setting [1], 95.8 nM under setting [2] and 107 nM under setting [3].
As for “CUUAGACAUGAGGAUCACCCAUGUGAGGAUAUGAAAUUAAUUAAUUAUUAAUUAUGAAUCAGAAGGCACAUAUG [Mat - Mod of Hyphema D37] (puzzle: Exclusion 1)”, the “apparent KD of MS2 coat protein” value amounted to 121 nM under setting [1], 47.9 nM under setting [2] and 50.9 nM under setting [3].
As to “CUUAGCCUAAAAUCACGCAAGCUUUUUGCUUGUCUUAAGACAUGAGGAUCACCCAUGUCCGGGCUGAACUUAUGUAA [Laantiusan] (puzzle: Sensor v3, turn-off variant 2)”, the “apparent KD of MS2 coat protein” value runs as follows: under setting [1], 22.7 nM; under setting [2], 30.9 nM; under setting [3], 26.4 nM.
As for “CUUAUGUGAGGAUAUCAGUAGUAAUACAAUAGUAUUACUACUGAGAAGGCACAUGAGGAUCACCCAUGUUCCUU [Exclusion 4 - Mod Omei Ex4 344 mod v.1] (puzzle: Exclusion 4)”, the “apparent KD of MS2 coat protein” value under setting [2] came to 27.5 nM.
